Test results from paper PMC3440434, “Efficient Antifouling Surface for Quantitative Surface Plasmon Resonance Based Biosensor Analysis”.

Legend:
PFV-1 IN (integrase) [1] = target: T1, PFV-1 IN (integrase) (PFV-1, UniProt P14350 752-1143); assay: SPR imaging; KD1, fast phase of two-phase fit; 200 nM IN; ka1 2.2e5 M-1s-1, kd1 5.8e-3 s-1; 10 mM MgCl2; 20 mM Hepes pH 8, 10 mM MgCl2, 100 mM NaCl, 25 ul/min; EG4-pretreated gold SPRi surface; temperature not given; settings: protein: recombinant; label: none (immobilized on gold via 5' thiol); 5' overhang 5 nt (T5 spacer) on strand 1, other end blunt
PFV-1 IN (integrase) [2] = target: T1, PFV-1 IN (integrase); assay: SPR imaging; 4 nM IN, monophasic; 5 uM dsDNA spots; ka 3.7e6 M-1s-1, kd 1.8e-3 s-1; text prints 4.9e-9 M but the rates give 4.9e-10; 10 mM MgCl2; 20 mM Hepes pH 8, 10 mM MgCl2, 100 mM NaCl, 25 ul/min; EG4-pretreated gold SPRi surface; temperature not given; settings: protein: recombinant; label: none (immobilized on gold via 5' thiol); 5' overhang 5 nt (T5 spacer) on strand 1, other end blunt

B1: SH-5T-dsDNA (random 38 bp) (dsDNA)
DNA 1: TTTTTCTAAGCTAGAAGATTACTCCAAGTACATAATCTAAAAT
DNA 2: ATTTTAGATTATGTACTTGGAGTAATCTTCTAGCTTAG
modifications: 5' thiol-C6 on strand 1
Kd (PFV-1 IN (integrase) [1]): 26 nM | Kd (PFV-1 IN (integrase) [2]): 0.49 nM
